Positions of bridges follow the written chain, without caps; N, C: chain ends. Non-standard residues stand in square brackets, D forms with d. No end group written: not given here. *: point of attachment. Acetyl(2-(4-imidazolyl)) = O=C(Cc1c[nH]cn1)*; Aib = CC(C)(N)C(=O)O
T1: human GIP receptor (human, UniProt P48546 22-466)
T1 sequence (looked up): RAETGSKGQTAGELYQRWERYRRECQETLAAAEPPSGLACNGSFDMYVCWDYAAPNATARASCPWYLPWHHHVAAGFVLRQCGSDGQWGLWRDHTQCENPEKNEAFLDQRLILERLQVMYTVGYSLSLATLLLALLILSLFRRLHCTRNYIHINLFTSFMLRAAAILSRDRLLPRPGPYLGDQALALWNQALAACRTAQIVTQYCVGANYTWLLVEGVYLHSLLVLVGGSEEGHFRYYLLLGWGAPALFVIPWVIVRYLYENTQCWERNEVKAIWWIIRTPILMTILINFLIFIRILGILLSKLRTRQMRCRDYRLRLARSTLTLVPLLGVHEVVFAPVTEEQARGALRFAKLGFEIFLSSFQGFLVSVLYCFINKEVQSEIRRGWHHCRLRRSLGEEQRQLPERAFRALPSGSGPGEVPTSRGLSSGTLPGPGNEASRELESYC


Tests used:
Test in all cases: cell-based or functional assay
[1] = target: human GLP-1 receptor (human, UniProt P43220 24-463)
[2] = target: human GCG receptor (human, UniProt P47871 26-477)
Sequence of human GCG receptor (P47871 26-477): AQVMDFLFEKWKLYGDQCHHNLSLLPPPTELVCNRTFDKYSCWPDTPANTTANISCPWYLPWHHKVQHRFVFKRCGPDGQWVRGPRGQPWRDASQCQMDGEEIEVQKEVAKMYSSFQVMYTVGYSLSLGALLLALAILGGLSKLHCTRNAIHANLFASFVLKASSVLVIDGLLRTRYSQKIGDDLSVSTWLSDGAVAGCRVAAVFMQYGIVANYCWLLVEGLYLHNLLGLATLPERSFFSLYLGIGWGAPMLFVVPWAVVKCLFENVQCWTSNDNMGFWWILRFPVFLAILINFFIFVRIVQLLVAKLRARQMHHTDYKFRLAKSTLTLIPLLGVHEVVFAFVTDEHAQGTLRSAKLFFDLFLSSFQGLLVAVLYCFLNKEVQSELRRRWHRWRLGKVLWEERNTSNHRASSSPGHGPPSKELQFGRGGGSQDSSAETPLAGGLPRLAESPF

[3] = target: T1, human GIP receptor

| Binder | In vitro activity (%) compared with native peptide: vs GLP-1 [1] [%] | In vitro activity (%) compared with native peptide: vs Glucagon [2] [%] | In vitro activity (%) compared with native peptide: vs GIP [3] [%] |
| --- | --- | --- | --- |
| {Acetyl(2-(4-imidazolyl))}-GQGTFTSDLSKQMDSERAREFIEWLKNTGPSSGAPPPSHG (not fully specified; also: ring from underlined residues, positions not shown) [triple agonist of SEQ ID NO: 18] | < 0.1 | < 0.1 | < 0.1 |
| Y[Aib]QGTFTSDYSKYLDEKRAKEFVQWLLCHHPSSGQPPPS (bridge 16-20; not fully specified) [triple agonist of SEQ ID NO: 95] | 2.1 | 0.4 | < 0.1 |
| {Acetyl(2-(4-imidazolyl))}-GQGTFTSDLSKQMDEERAREFIEWLLAQKPSSGAPPPSHG (not fully specified; also: ring from underlined residues, positions not shown) [triple agonist of SEQ ID NO: 17] | 0.2 | < 0.1 | < 0.1 |
| {Acetyl(2-(4-imidazolyl))}-[Aib]EGTFTSDYSIAMDEIHQKDFVDWLLAEKC (bridge 15-19; not fully specified) [triple agonist of SEQ ID NO: 91] | 31.9 | 16.8 | 0.3 |
| {Acetyl(2-(4-imidazolyl))}-[Aib]EGTFTSDYSIAMDEIHQKDFVNWLLAQKC (bridge 15-19; not fully specified) [triple agonist of SEQ ID NO: 90] | 7.4 | < 0.1 | < 0.1 |
| {Acetyl(2-(4-imidazolyl))}-[Aib]QGTFTSDYSIAMDEIHQKDFVNWLLNTKC (bridge 15-19; not fully specified) [triple agonist of SEQ ID NO: 94] | 0.5 | < 0.1 | < 0.1 |
| {Acetyl(2-(4-imidazolyl))}-[Aib]QGTFTSDYSKYLDEKRQKEFVNWLLAQKC (bridge 15-19; not fully specified) [triple agonist of SEQ ID NO: 93] | 5.7 | 0.3 | 0.7 |
| {Acetyl(2-(4-imidazolyl))}-GEGTFTSDLSKYLDSRRQQLFVQWLKAGGPSSGAPPPSHG (not fully specified; also: ring from underlined residues, positions not shown) [triple agonist of SEQ ID NO: 11] | 1.4 | < 0.1 | < 0.1 |
| {Acetyl(2-(4-imidazolyl))}-GQGTFTSDLSKQMDSEAQQLFIEWLKNGGPSSGAPPPSHG (not fully specified; also: ring from underlined residues, positions not shown) [triple agonist of SEQ ID NO: 16] | 2.1 | < 0.1 | < 0.1 |
| H[Aib]QGTFTSDVSSYLDGQAQKEFIAWLVKGC (not fully specified) [triple agonist of SEQ ID NO: 2] | 5.9 | < 0.1 | < 0.1 |
| {Acetyl(2-(4-imidazolyl))}-GQGTFTSDLSIQYDSEHQRDFIEWLKDTGPSSGAPPPSHG (not fully specified; also: ring from underlined residues, positions not shown) [triple agonist of SEQ ID NO: 19] | < 0.1 | < 0.1 | < 0.1 |
| {Acetyl(2-(4-imidazolyl))}-[Aib]QGTFTSDYSIAMDEIHQKDFVNWLLAQKC (bridge 15-19; not fully specified) [triple agonist of SEQ ID NO: 92] | 0.8 | < 0.1 | 0.4 |
| Y[Aib]QGTFTSDYSKALDEKAAKDFVNWLLDQHPSSGQPPPSC (bridge 16-20) [triple agonist of SEQ ID NO: 102] | 23.3 | 29.5 | 58 |
| {Acetyl(2-(4-imidazolyl))}-GQGTFTSDYSIQLDEIAVRDFVEWLKNGGPSSGAPPPSHG (not fully specified; also: ring from underlined residues, positions not shown) [triple agonist of SEQ ID NO: 14] | 28 | < 0.1 | < 0.1 |
| Y[Aib]QGTFTSDYSKYLDEKRAKEFVQWLLDHCPSSGQPPPS (bridge 16-20; not fully specified) [triple agonist of SEQ ID NO: 96] | 34.4 | 195 | 5.2 |
| Y[Aib]QGTFTSDYSKALDEKAAKDFVNWLLDHHPSSGQPPPSC (bridge 16-20; not fully specified) [triple agonist of SEQ ID NO: 99] | 20.9 | 14.9 | 57.7 |
| {Acetyl(2-(4-imidazolyl))}-GQGTFTSDLSIQYEEEAQQDFVEWLKDTGPSSGAPPPSHG (not fully specified; also: ring from underlined residues, positions not shown) [triple agonist of SEQ ID NO: 20] | < 0.1 | < 0.1 | < 0.1 |
| Y[Aib]QGTFTSDYSKALDEKAAKEFVNWLLDHHPSSGQPPPSC (bridge 16-20; not fully specified) [triple agonist of SEQ ID NO: 98] | 28.1 | 8.2 | 47.1 |
| H[Aib]QGTFTSDVSKYLDGQAAQEFVAWLLAGGGPSSGAPPPSC (not fully specified) [triple agonist of SEQ ID NO: 10] | 46 | < 0.1 | < 0.1 |
| {Acetyl(2-(4-imidazolyl))}-GEGTFISDYSIQLDEIAVQDFVEWLLAQKPSSGAPPPSHG (not fully specified; also: ring from underlined residues, positions not shown) [triple agonist of SEQ ID NO: 13] | < 0.1 | < 0.1 | < 0.1 |
| Y[Aib]QGTFTSDYSKYLDEKRAKEFVQWLLDCHPSSGQPPPS (bridge 16-20; not fully specified) [triple agonist of SEQ ID NO: 97] | 10.5 | 62.8 | 2.6 |
| {Acetyl(2-(4-imidazolyl))}-GEGTFISDLSKYMDEQAVQLFVEWLMAGGPSSGAPPPSHG (not fully specified; also: ring from underlined residues, positions not shown) [triple agonist of SEQ ID NO: 12] | 0.4 | < 0.1 | < 0.1 |
| Y[Aib]QGTFTSDYSKALDEKAAKEFVNWLLDQHPSSGQPPPSC (bridge 16-20) [triple agonist of SEQ ID NO: 101] | 23.2 | 13.9 | 40.1 |
| Y[Aib]QGTFTSDYSKALDEKAAKEFVQWLLDQHPSSGQPPPSC (bridge 16-20) [triple agonist of SEQ ID NO: 100] | 42.2 | 12.7 | 118 |

Source: patent US20230372448A1, “THERAPEUTIC USE OF LONG-ACTING CONJUGATE OF TRIPLE AGONIST ACTING ON ALL OF GLUCAGON, GLP-1 AND GIP RECEPTORS AGAINST MULTIPLE SCLEROSIS” (HANMI PHARM. CO. ,LTD., priority 2020, published 2023)
